Source: US20170224620A1 (Pfizer, published 2017)
Bridges are numbered along the chain shown (N, C = ends). Where no end group is shown, it is not given here. [ ]: non-standard residue; d: D form. hCys = N[C@@H](CCS)C(=O)O; F(pg) = not defined here; Pra = C#CC[C@H](N)C(=O)O

The binders below were run against T1, Fc tagged recombinant human EGFR (rhEGFR-Fc, R&D systems, Cat#344-ER-050) (human, UniProt P00533 25-645) (assay: SPR).
T1 construct: Bought protein; also called apo-EGFR; not shown: Fc tag
Method: Surface plasmon resonance (SPR) binding studies were carried out on a Biacore T200 instrument (GE Healthcare). […] The contact time and resulting amount of rhEGFR-Fc capture was varied based on the nature of the analyte, namely whether it was a peptide or nanoparticle.
Peptide binding assays were carried out in 10 mM PBS buffer supplemented with 0.05% surfactant P20 and 5% DMSO by volume, at 25° C. Peptides were injected over the rhEGFR-Fc surface for 60 s, followed by dissociation (buffer injection) for 60 s and regeneration with a 10 s pulse of 3M MgCl₂. A fresh rhEGFR-Fc surface was generated for each concentration of each peptide tested. Peptide binding data was analyzed by fitting to a 1:1 Langmuir kinetic model to obtain the on-rate (kₐ), off-rate (kd) and/or equilibrium binding constant (KD) of the interaction.

| Binder | binding result | KD/P2 KD | KD Relative to P2 | Result (affinity relative to KD of P2) |
| --- | --- | --- | --- | --- |
| DPATWEVWGRECLQ-{propargyl glycine moiety (p-0168)} (not fully specified (N-terminus), also called P2 Ala scan, AA position 3) [P2-3] | no binding | – | – | – |
| H-DPC[Pra]WEVWGRECLQ-NH2 (disulfide 3-12; SMILES C#CC[C@@H]1NC(=O)[C@@H](NC(=O)[C@@H]2CCCN2C(=O)[C@@H](N)CC(=O)O)CSSC[C@@H](C(=O)N[C@@H](CC(C)C)C(=O)N[C@@H](CCC(N)=O)C(N)=O)NC(=O)[C@H](CCC(=O)O)NC(=O)[C@H](CCCNC(=N)N)NC(=O)CNC(=O)[C@H](Cc2c[nH]c3ccccc23)NC(=O)[C@H](C(C)C)NC(=O)[C@H](CCC(=O)O)NC(=O)[C@H](Cc2c[nH]c3ccccc23)NC1=O) [P2-27] | – | 5.4 ratio | – | – |
| H-DPCTW[Pra]VWGRECLQ-NH2 (disulfide 3-12; SMILES C#CC[C@@H]1NC(=O)[C@H](Cc2c[nH]c3ccccc23)NC(=O)[C@H]([C@@H](C)O)NC(=O)[C@@H](NC(=O)[C@@H]2CCCN2C(=O)[C@@H](N)CC(=O)O)CSSC[C@@H](C(=O)N[C@@H](CC(C)C)C(=O)N[C@@H](CCC(N)=O)C(N)=O)NC(=O)[C@H](CCC(=O)O)NC(=O)[C@H](CCCNC(=N)N)NC(=O)CNC(=O)[C@H](Cc2c[nH]c3ccccc23)NC(=O)[C@H](C(C)C)NC1=O) [P2-31] | – | 0.86 ratio | – | – |
| DPCTFEVWGRECLQ (disulfide 3-12; not fully specified (N-terminus, C-terminus), P2 backbone; also called P2 with Phenylalanine at W5) [P2-70] | – | – | 9.24 ratio | – |
| DPCTWEVAGRECLQ (disulfide 3-12; not fully specified (N-terminus, C-terminus); also: C-terminal propargylglycine moiety, also called P2 Ala scan, AA position 8) [P2-8] | no binding | – | – | – |
| Ac-DPCTWEVWGREALQ (also: C-terminal propargylglycine moiety, not placed, also called P2 Ala scan, AA position 12) [P2-12] | no binding | – | – | – |
| H-DPCTWE[Pra]WGRECLQ-NH2 (disulfide 3-12; SMILES C#CC[C@@H]1NC(=O)[C@H](CCC(=O)O)NC(=O)[C@H](Cc2c[nH]c3ccccc23)NC(=O)[C@H]([C@@H](C)O)NC(=O)[C@@H](NC(=O)[C@@H]2CCCN2C(=O)[C@@H](N)CC(=O)O)CSSC[C@@H](C(=O)N[C@@H](CC(C)C)C(=O)N[C@@H](CCC(N)=O)C(N)=O)NC(=O)[C@H](CCC(=O)O)NC(=O)[C@H](CCCNC(=N)N)NC(=O)CNC(=O)[C@H](Cc2c[nH]c3ccccc23)NC1=O) [P2-35] | – | 5.69 ratio | – | – |
| H-DP[hCys]TWEVWGRECLQGG[Pra]G-NH2 (disulfide 3-12; SMILES C#CC[C@H](NC(=O)CNC(=O)CNC(=O)[C@H](CCC(N)=O)NC(=O)[C@H](CC(C)C)NC(=O)[C@@H]1CSSCC[C@H](NC(=O)[C@@H]2CCCN2C(=O)[C@@H](N)CC(=O)O)C(=O)N[C@@H]([C@@H](C)O)C(=O)N[C@@H](Cc2c[nH]c3ccccc23)C(=O)N[C@@H](CCC(=O)O)C(=O)N[C@@H](C(C)C)C(=O)N[C@@H](Cc2c[nH]c3ccccc23)C(=O)NCC(=O)N[C@@H](CCCNC(=N)N)C(=O)N[C@@H](CCC(=O)O)C(=O)N1)C(=O)NCC(N)=O) [P2-51] | – | – | – | 8.88 ratio |
| H-DPCTWETWGRECLQGG[Pra]G-NH2 (disulfide 3-12; SMILES C#CC[C@H](NC(=O)CNC(=O)CNC(=O)[C@H](CCC(N)=O)NC(=O)[C@H](CC(C)C)NC(=O)[C@@H]1CSSC[C@H](NC(=O)[C@@H]2CCCN2C(=O)[C@@H](N)CC(=O)O)C(=O)N[C@@H]([C@@H](C)O)C(=O)N[C@@H](Cc2c[nH]c3ccccc23)C(=O)N[C@@H](CCC(=O)O)C(=O)N[C@@H]([C@@H](C)O)C(=O)N[C@@H](Cc2c[nH]c3ccccc23)C(=O)NCC(=O)N[C@@H](CCCNC(=N)N)C(=O)N[C@@H](CCC(=O)O)C(=O)N1)C(=O)NCC(N)=O) [P2-38] | – | 12.3 ratio | – | – |
| H-DPCTWEVWG[F(pg)]ECLQGG[Pra]G-NH2 (disulfide 3-12; reading uncertain) [P2-47] | – | 37.1 ratio | – | – |
| H-DPCTWEVFGRECLQGG[Pra]G-NH2 (disulfide 3-12; SMILES C#CC[C@H](NC(=O)CNC(=O)CNC(=O)[C@H](CCC(N)=O)NC(=O)[C@H](CC(C)C)NC(=O)[C@@H]1CSSC[C@H](NC(=O)[C@@H]2CCCN2C(=O)[C@@H](N)CC(=O)O)C(=O)N[C@@H]([C@@H](C)O)C(=O)N[C@@H](Cc2c[nH]c3ccccc23)C(=O)N[C@@H](CCC(=O)O)C(=O)N[C@@H](C(C)C)C(=O)N[C@@H](Cc2ccccc2)C(=O)NCC(=O)N[C@@H](CCCNC(=N)N)C(=O)N[C@@H](CCC(=O)O)C(=O)N1)C(=O)NCC(N)=O) [P2-40] | binds | – | – | – |
| H-DPCTWEVAGRECLQGG[Pra]G-NH2 (disulfide 3-12; SMILES C#CC[C@H](NC(=O)CNC(=O)CNC(=O)[C@H](CCC(N)=O)NC(=O)[C@H](CC(C)C)NC(=O)[C@@H]1CSSC[C@H](NC(=O)[C@@H]2CCCN2C(=O)[C@@H](N)CC(=O)O)C(=O)N[C@@H]([C@@H](C)O)C(=O)N[C@@H](Cc2c[nH]c3ccccc23)C(=O)N[C@@H](CCC(=O)O)C(=O)N[C@@H](C(C)C)C(=O)N[C@@H](C)C(=O)NCC(=O)N[C@@H](CCCNC(=N)N)C(=O)N[C@@H](CCC(=O)O)C(=O)N1)C(=O)NCC(N)=O) [P2-39] | no binding | – | – | – |
| H-DPCTWEVWGAECLQGG[Pra]G-NH2 (disulfide 3-12) [P2-45] | binds | – | – | – |
| H-DPCTWEVWGKECLQGG[Pra]G-NH2 (disulfide 3-12) [P2-46] | – | 13.9 ratio | – | – |
| H-DPCTWEVWGRDCLQGG[Pra]G-NH2 (disulfide 3-12; SMILES C#CC[C@H](NC(=O)CNC(=O)CNC(=O)[C@H](CCC(N)=O)NC(=O)[C@H](CC(C)C)NC(=O)[C@@H]1CSSC[C@H](NC(=O)[C@@H]2CCCN2C(=O)[C@@H](N)CC(=O)O)C(=O)N[C@@H]([C@@H](C)O)C(=O)N[C@@H](Cc2c[nH]c3ccccc23)C(=O)N[C@@H](CCC(=O)O)C(=O)N[C@@H](C(C)C)C(=O)N[C@@H](Cc2c[nH]c3ccccc23)C(=O)NCC(=O)N[C@@H](CCCNC(=N)N)C(=O)N[C@@H](CC(=O)O)C(=O)N1)C(=O)NCC(N)=O) [P2-49] | – | 3.39 ratio | – | – |
